Drawing on US6673915, this text covers EC50 of intracellular calcium flux for one molecule.

In this test the target is human CCR2b with the FLAG epitope at the extreme amino-terminus, stably expressed on HEK-293 cells (Example 10B) (human), P41597. The test is described as follows: cell-based or functional assay.
Sequence of human CCR2b with the FLAG epitope at the extreme amino-terminus, stably expressed on HEK-293 cells (Example 10B) (human), P41597 (P41597 whole entry): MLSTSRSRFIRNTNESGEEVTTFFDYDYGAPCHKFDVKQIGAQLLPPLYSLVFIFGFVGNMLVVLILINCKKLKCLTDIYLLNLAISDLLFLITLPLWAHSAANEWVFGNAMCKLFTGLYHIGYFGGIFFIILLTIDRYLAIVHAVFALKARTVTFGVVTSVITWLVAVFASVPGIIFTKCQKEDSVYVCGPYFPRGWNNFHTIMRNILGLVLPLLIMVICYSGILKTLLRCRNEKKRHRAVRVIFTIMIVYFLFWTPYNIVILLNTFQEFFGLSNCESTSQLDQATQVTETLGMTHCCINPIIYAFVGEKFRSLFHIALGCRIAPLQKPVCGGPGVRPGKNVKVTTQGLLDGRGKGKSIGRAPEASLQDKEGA

B1: murine MCP-5, predicted mature 82 amino acid protein beginning with the N-terminal glycine (E. coli, PeproTech), Q62401 23-104 (ligand)
chain: GPDAVSTPVTCCYNVVKQKIHVRKLKSYRRITSSQCPREAVIFRTILDKEICADPKEKWVKNSINHLDKTSQTFILEPSCLG
In the case of B1, the EC50 of intracellular calcium flux is 5 nM.
